Test results published in patent US20080027145A1, “Therapeutic Molecules and Methods for Generating and/or Selecting Same” (priority 2004, published 2008).

B1: Bmf: BH3-only protein Bmf, expressed from retrovirus in MEFs, recombinant in GST pull-down (protein, UniProt Q91ZE9 1-185, looked up)
Bcl-2-modifying factor: MEPPQCVEELEDDVFQSEDGEPGTQPGGLLSADLFAQSQLDCPLSRLQLFPLTHCCGPGLRPISQEDKATQTLSPASPSQGVMLPCGVTEEPQRLFYGNAGYRLPLPASFPAGSPLGEQPPEGQFLQHRAEVQIARKLQCIADQFHRLHTQQHQQNRDRAWWQVFLFLQNLALNRQENREGVGPW
B2: Bad: full-length mouse BH3-only protein Bad expressed in cells, recombinant in GST pull-down (protein, UniProt Q61337 1-204, looked up)
chain: MGTPKQPSLAPAHALGLRKSDPGIRSLGSDAGGRRWRPAAQSMFQIPEFEPSEQEDASATDRGLGPSLTEDQPGPYLAPGLLGSNIHQQGRAATNSHHGGAGAMETRSRHSSYPAGTEEDEGMEEELSPFRGRSRSAPPNLWAAQRYGRELRRMSDEFEGSFKGLPRPKSAGTATQMRQSAGWTRIIQSWWDRNLGKGGSTPSQ
modifications: full-length
notes: full-length mouse BH3-only protein Bad expressed in cells, recombinant in GST pull-down
B3: Noxa: full-length BH3-only protein Noxa expressed in cells (mouse Noxa bearing two BH3s in co-immunoprecipitation) (protein, UniProt Q9JM54 1-103, looked up)
chain: MPGRKARRNAPVNPTRAELPPEFAAQLRKIGDKVYCTWSAPDITVVLAQMPGKSQKSRMRSPSPTRVPADLKDECAQLRRIGDKVNLRQKLLNLISKLFNLVT
modifications: full-length
B4: Bik: full-length human BH3-only protein Bik expressed in cells (protein, UniProt Q13323 1-160, looked up)
chain: MSEVRPLSRDILMETLLYEQLLEPPTMEVLGMTDSEEDLDPMEDFDSLECMEGSDALALRLACIGDEMDVSLRAPRLAQLSEVAMHSLGLAFIYDQTEDIRDVLRSFMDGFTTLKENIMRFWRSPNPGSWVSCEQVLLALLLLLALLLPLLSGGLHLLLK
modifications: full-length

What was measured:
GST Mcl-1 = GST Mcl-1 (Mus musculus, UniProt P97287); experiment: GST pull-down with recombinant BH3-only proteins; assay type: binding
[1] = system: mouse embryonic fibroblasts (MEFs); experiment: Killing of MEFs after retroviral expression, viability 24 hours after infection; assay type: cell-based; settings: for killing of MEFs: retroviral expression, 24 hours after infection; for killing of MEFs on co-expression with the NoxaBH3: co-expressed with GFP-Bims NoxaBH3, 24 hours
Experimental: FIG. 7 is a graphical representation showing that BH3-only proteins that bind selective targets have weak killing activity. (A) The affinities of BH3-only peptides for pro-survival proteins (tabulated in FIG. 3A) were inversely plotted to facilitate comparison of the patterns of BH3 binding. […] Immortalized 3T9 MEFs were infected with retroviruses expressing only GFP (control), or one of the BH3-only proteins and GFP. The viability of the infected (GFP^+ve) cells was determined by PI exclusion 24 hours after infection. The histograms represent means±1SD of at least 3 experiments. […] The filter was probed with a rat monoclonal anti-FLAG antibody. *Degradation product of Mcl-1. […] Viability of MEFs infected with retroviruses encoding the indicated proteins (GFP^+ve) was analyzed 24 hours after infection. The histograms represent means±1SD of at least 3 experiments. (E) Long-term survival of MEFs infected with BH3 expressing retroviruses. One hundred retrovirally-infected cells were plated and the absolute number of GFP^+ve colonies formed after 6 days scored. […] The data represent the average number of GFP^+ve colonies formed±1SD from at least 3 experiments. To assess the biological relevance of the selective binding, retroviral delivery was used to compare the ability of different BH3-only proteins to kill wild-type mouse embryonic fibroblasts (MEFs). To monitor expression of the introduced gene, a vector (pMIG) in which its expression is coupled via an internal ribosomal entry site (IRES) to that of green fluorescent protein (GFP) was used (Van Parijs et al., Immunity 11:281-288, 1999). The cells were efficiently infected (>90%) and the introduced BH3-only proteins were comparably expressed. Viability of the infected (GFP^+ve) cells was scored 24 hours after infection (FIGS. 7A, 7B) and in long-term colony assays (FIG. 7E). […] Thus, the neutralization of Mcl-1 by Noxa should be complemented by co-expression of a BadBH3 to neutralize Bcl-2 and Bcl-xL in MEFs (FIG. 8A).

Mcl-1 ΔN151 ΔC23 = target: T1, Mcl-1 ΔN151 ΔC23 (Mus musculus, UniProt P97287); experiment: Mcl-1 ΔN151 ΔC23
T1 construct: mouse Mcl-1 (Acc. no. NP_031588; residues 152-308); GST (N, cleaved yes); made in house
Experimental: (§1) Table printed on a drawing sheet, FIGURE 2A
Head of the field: Mcl-1 ΔN151 ΔC23
(§2) The patent's description of the figure: FIG. 2 is a graphical representation showing pro-apoptotic BH3-only and pro-survival Bcl-2-like proteins have distinctive interactions. (A) Using competitive binding assays, the IC50 (nM) for the indicated interactions were determined. The results shown are from representative experiments; the variation observed in multiple experiments was less than two-fold (using different chips or protein batches). (B) Relative binding affinities of interactions (tabulated in A) were inversely plotted. The BH3 binding profiles of pro-survival proteins are shown. In (C), the sequences of human Bcl-2 (residues 93-202), human Bcl-xL (86-195), human Bcl-w (42-151), mouse Mcl-1 (190-300) and mouse A1 (33-148) that form their BH3 binding grooves (α-helices 2 to 8; Hinds et al., EMBO J 22:1497-1507, 2003) were compared and presented as a phylogenetic tree. Color reproductions are available from the patentees on request.
(§3) First copying reader's note: The table itself prints no unit; IC50 (nM) is printed only on the axis of panel B of the same figure, which plots the same values.
Where the first naming reader finds the target: head: Mcl-1 ΔN151 ΔC23

A1 ΔC20 = target: T2, A1 ΔC20 (Mus musculus, UniProt Q07440); experiment: A1 ΔC20
T2 construct: mouse A1 (Acc. no. NP_033872; residues 1-152); GST (N, cleaved yes); made in house
Experimental: as §1
Head of the field: A1 ΔC20
as §2, §3
Where the first naming reader finds the target: head: A1 ΔC20

FLAG-tagged Bcl-2 = target: T3, FLAG-tagged Bcl-2 (Homo sapiens, UniProt P10415); experiment: Co-immunoprecipitation in transfected 293T cells; assay type: binding; settings: tagged full-length proteins
T3 construct: expressed in transfected cells; host or cells: HEK293T
Source text: (§4) Equivalent ^35S-labeled lysates harvested from 293T cells were immunoprecipitated with antibodies to the HA, FLAG (FL) or control (C) tags.
(§5) The maintenance, transfection and metabolic labeling of the human embryonic kidney (HEK) 293T cells with ^35S-methionine/cysteine (NEN) as well as co-immunoprecipitation have been described (Huang et al., Supra; Moriishi et al., Proc Natl Acad Sci USA 96:9683-9688, 1999; O'Conner et al., Supra). Briefly, equivalent TCA-precipitable lysates were immunoprecipiated using the mouse monoclonal antibodies to HA (HA.11; CRP), FLAG (M2; Sigma) and control Glu-Glu (CRP) tags. The proteins were resolved by SDS:PAGE, transferred onto nitrocellulose membranes and detected by fluorography (Amplify; Amersham Biosciences).
(§6) To verify the in vitro findings, interactions of selected pairs of the full-length N-terminally tagged proteins were investigated in mammalian cells by co-immunoprecipitation. […] The cells were metabolically labeled with ^35S-methionine/cysteine to permit semi-quantitative assessment of any interaction between co-associating radiolabeled proteins.
(§7) To verify the in vitro findings, selected pairs of the full-length N-terminally tagged proteins associated in mammalian cells were investigated by co-immunoprecipitation. […] The cells were metabolically labeled with ^35S-methionine/cysteine to permit semi-quantitative assessment of any interaction between the labeled proteins or interaction was gauged by the more sensitive western blotting.

FLAG-tagged Bcl-xL = target: T4, FLAG-tagged Bcl-xL (Homo sapiens, UniProt Q07817); experiment: Co-immunoprecipitation in transfected 293T cells; assay type: binding; settings: tagged full-length proteins
T4 construct: expressed in transfected cells; host or cells: HEK293T
Source text: as §4, §5, §6, §7

FLAG-tagged Mcl-1 = target: T5, FLAG-tagged Mcl-1 (Mus musculus, UniProt P97287); experiment: Co-immunoprecipitation in transfected 293T cells; assay type: binding; settings: tagged full-length proteins
T5 construct: expressed in transfected cells; host or cells: HEK293T
Source text: as §4, §5, §6, §7

Bcl-2 ΔC22 = target: T6, Bcl-2 ΔC22 (Homo sapiens, UniProt P10415); experiment: Bcl-2 ΔC22
T6 construct: Human Bcl-2 (Acc. no. NP_000624; residues 1-217); made in house
Experimental: as §1
Head of the field: Bcl-2 ΔC22
as §2, with “In (C), the sequences of human Bcl-2 (residues 93-202), human Bcl-xL (86-195), human Bcl-w (42-151), mouse Mcl-1 (190-300) and mouse A1 (33-148) that form their BH3 binding grooves (α-helices 2 to 8; Hinds et al., EMBO J 22:1497-1507, 2003) were compared and presented as a phylogenetic tree.” left out
as §3
Where the first naming reader finds the target: head: Bcl-2 ΔC22

Bcl-xL ΔC24 = target: T7, Bcl-xL ΔC24 (Homo sapiens, UniProt Q07817); experiment: Bcl-xL ΔC24
T7 construct: Human Bcl-xL (Acc. no. NP_612815; residues 1-209); GST (N, cleaved yes); made in house
Experimental: as §1
Head of the field: Bcl-xL ΔC24
as §2, §3
Where the first naming reader finds the target: head: Bcl-xL ΔC24

Bcl-w ΔC29 = target: T8, Bcl-w ΔC29 (Homo sapiens, UniProt Q92843, A128E/C29S); experiment: Bcl-w ΔC29
T8 construct: human Bcl-w (Acc. no. NP_004041; residues 1-164; C29S A128E); made in house
Experimental: as §1, §2, §3

[2] = system: mouse embryonic fibroblasts (MEFs); experiment: Long-term colony assay of retrovirally infected MEFs; assay type: cell-based; settings: colonies after 6 days
Experimental: FIG. 7 is a graphical representation showing that BH3-only proteins that bind selective targets have weak killing activity. (A) The affinities of BH3-only peptides for pro-survival proteins (tabulated in FIG. 3A) were inversely plotted to facilitate comparison of the patterns of BH3 binding. […] Immortalized 3T9 MEFs were infected with retroviruses expressing only GFP (control), or one of the BH3-only proteins and GFP. The viability of the infected (GFP^+ve) cells was determined by PI exclusion 24 hours after infection. The histograms represent means±1SD of at least 3 experiments. […] The filter was probed with a rat monoclonal anti-FLAG antibody. *Degradation product of Mcl-1. […] Viability of MEFs infected with retroviruses encoding the indicated proteins (GFP^+ve) was analyzed 24 hours after infection. The histograms represent means±1SD of at least 3 experiments. (E) Long-term survival of MEFs infected with BH3 expressing retroviruses. One hundred retrovirally-infected cells were plated and the absolute number of GFP^+ve colonies formed after 6 days scored. […] The data represent the average number of GFP^+ve colonies formed±1SD from at least 3 experiments. […] Viability of the infected (GFP^+ve) cells was scored 24 hours after infection (FIGS. 7A, 7B) and in long-term colony assays (FIG. 7E).

T2 sequence (Q07440 1-152, stated change not applied): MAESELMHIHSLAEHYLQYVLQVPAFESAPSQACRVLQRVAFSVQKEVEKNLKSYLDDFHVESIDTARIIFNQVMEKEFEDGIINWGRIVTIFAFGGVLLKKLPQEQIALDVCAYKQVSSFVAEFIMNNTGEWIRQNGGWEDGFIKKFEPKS
T4 sequence (Q07817 whole entry): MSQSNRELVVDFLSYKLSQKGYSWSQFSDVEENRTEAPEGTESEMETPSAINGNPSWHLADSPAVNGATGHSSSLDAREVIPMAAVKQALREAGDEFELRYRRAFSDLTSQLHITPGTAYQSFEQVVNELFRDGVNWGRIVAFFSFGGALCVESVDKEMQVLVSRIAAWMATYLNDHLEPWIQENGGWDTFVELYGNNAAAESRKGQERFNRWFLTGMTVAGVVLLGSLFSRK
T7 sequence (Q07817 1-209, stated change not applied): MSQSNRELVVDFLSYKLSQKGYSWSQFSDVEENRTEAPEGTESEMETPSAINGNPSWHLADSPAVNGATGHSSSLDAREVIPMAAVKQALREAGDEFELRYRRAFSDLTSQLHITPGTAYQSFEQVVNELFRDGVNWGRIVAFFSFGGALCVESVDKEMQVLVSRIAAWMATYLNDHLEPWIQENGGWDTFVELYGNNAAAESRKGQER
T5 sequence (P97287 whole entry): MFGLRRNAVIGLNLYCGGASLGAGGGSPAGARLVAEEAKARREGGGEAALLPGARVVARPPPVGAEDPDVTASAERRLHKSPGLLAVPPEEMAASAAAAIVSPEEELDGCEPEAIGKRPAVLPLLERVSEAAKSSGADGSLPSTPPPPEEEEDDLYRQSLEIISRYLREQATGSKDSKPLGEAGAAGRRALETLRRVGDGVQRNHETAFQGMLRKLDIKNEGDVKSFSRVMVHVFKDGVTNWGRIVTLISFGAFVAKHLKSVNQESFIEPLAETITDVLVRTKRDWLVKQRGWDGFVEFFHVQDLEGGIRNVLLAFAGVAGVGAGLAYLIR
GST Mcl-1, sequence (P97287 whole entry): as above
T8 sequence (Q92843 1-164 C29S/A128E): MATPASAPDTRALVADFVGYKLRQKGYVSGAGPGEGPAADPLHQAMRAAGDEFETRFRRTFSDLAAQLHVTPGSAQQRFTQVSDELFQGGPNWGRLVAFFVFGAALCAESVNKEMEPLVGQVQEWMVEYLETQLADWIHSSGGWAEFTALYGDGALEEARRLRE
T6 sequence (P10415 1-217, stated change not applied): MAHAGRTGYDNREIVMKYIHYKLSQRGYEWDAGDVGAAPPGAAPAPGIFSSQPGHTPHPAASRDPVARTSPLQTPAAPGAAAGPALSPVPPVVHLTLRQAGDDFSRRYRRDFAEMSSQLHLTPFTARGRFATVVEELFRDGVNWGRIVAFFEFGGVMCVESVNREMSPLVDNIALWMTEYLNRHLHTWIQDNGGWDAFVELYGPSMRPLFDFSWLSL
T1 sequence (P97287 152-308, stated change not applied): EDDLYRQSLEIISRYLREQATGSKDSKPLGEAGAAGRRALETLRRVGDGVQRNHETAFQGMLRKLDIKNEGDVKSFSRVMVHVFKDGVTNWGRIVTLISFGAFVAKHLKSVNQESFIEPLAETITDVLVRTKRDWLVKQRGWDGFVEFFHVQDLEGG
T3 sequence (P10415 whole entry): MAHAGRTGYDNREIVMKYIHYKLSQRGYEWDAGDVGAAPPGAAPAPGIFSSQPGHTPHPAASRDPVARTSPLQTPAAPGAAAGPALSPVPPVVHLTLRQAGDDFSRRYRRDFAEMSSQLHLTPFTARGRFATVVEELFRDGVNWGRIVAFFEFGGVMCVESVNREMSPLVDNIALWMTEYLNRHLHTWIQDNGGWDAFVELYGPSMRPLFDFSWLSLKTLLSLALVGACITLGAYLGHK

| Molecule | binding of GST Mcl-1 (GST Mcl-1) | killing of MEFs [1] | IC50 (Mcl-1 ΔN151 ΔC23) [nM] | IC50 (A1 ΔC20) [nM] | interaction with Bcl-2 by co-immunoprecipitation (FLAG-tagged Bcl-2) | interaction with Bcl-xL by co-immunoprecipitation (FLAG-tagged Bcl-xL) | interaction with Mcl-1 by co-immunoprecipitation (FLAG-tagged Mcl-1) | IC50 (Bcl-2 ΔC22) [nM] | IC50 (Bcl-xL ΔC24) [nM] | IC50 (Bcl-w ΔC29) [nM] | killing of MEFs on co-expression with the BadBH3 ([1]; co-expressed with GFP-Bims BadBH3, 24 hours) | killing of MEFs on co-expression with the NoxaBH3 [1] | long-term survival, GFP+ve colonies [2] |
| --- | --- | --- | --- | --- | --- | --- | --- | --- | --- | --- | --- | --- | --- |
| B1 | weakly | much less potent killers | 1100 | 1800 | – | – | – | – | – | – | – | – | – |
| B2 | not | much less potent killers | > 100000 | 15000 | bound well | bound well | not appreciably | 16 | 5.3 | 30 | – | – | – |
| B3 | – | much less potent killers | – | 180 | – | did not | interacted only with Mcl-1 | > 100000 | > 100000 | > 100000 | as much cell death as expression of Bims alone | did not augment | modest effects |
| B4 | – | much less potent killers | – | 58 | – | to a greater extent than Bcl-2 or Mcl-1 | – | – | – | – | – | potently enhanced | modest effects |
